Laboratory results published in the supplement of paper PMC10567573.

B1: VDR (parent)
chain: VTLELSQLSMLPHLADLVSYSIQK

Variants of: B1
Assay: protein stability index of a GFP-peptide fusion (GPS, HEK-293T) (PSI 1-6); higher = more stable
Settings: c terminus: a fixed tail appended
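Further: lentivirally expressed fusions sorted by FACS into six bins by GFP to DsRed ratio, PSI derived from sequencing read proportions per bin multiplied by bin number.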

Protein stability index of substitutions, site by site:
S9: R 3.06 | N 3.47 | K 3.79 | W 3.43 | L 2.79 | I 3.23 | D 2.83 | Q 2.24 | E 3.48 | M 3.43 | P 1.97 | C 2.37 | A 2.74 | H 3.83 | F 2.67 | Y 2.63 | G 3.56 | V 2.74
L5: T 2.04 | V 2.65 | A 2.12 | Y 3.55 | G 2.07 | D 2.1 | M 4.44 | E 1.71 | S 1.92 | Q 2.01 | W 2.81 | P 1.86 | I 3.82 | K 1.85 | H 2.33 | C 2.54 | R 2.5 | N 1.93
L3: E 1.84 | G 2.67 | Y 2.81 | W 4.09 | P 2.49 | M 3.15 | N 1.5 | I 2.53 | F 1.95 | H 1.6 | T 1.97 | S 1.5 | R 1.53 | V 2.45 | Q 1.96 | K 1.16
E4: P 3.67 | I 3.27 | Q 3.55 | L 4.64 | D 3.44 | H 2.02 | F 2.88 | G 2.6 | A 2.69 | K 3.75 | Y 2.58 | C 3.83 | N 2.66 | T 2.67 | R 3.12 | V 3.1 | M 3.22
L8: G 1.62 | Q 1.54 | E 1.65 | C 2.43 | W 1.82 | P 2.33 | Y 2.47 | K 3.33 | R 2.25 | V 3.88 | A 2.74 | S 2.16 | T 2.85 | H 2.92 | D 2.91 | M 3.27 | N 2.35
S6: V 3.64 | D 2.16 | M 2.06 | A 2.88 | F 2.88 | T 1.28 | R 1.52 | Q 2.54 | C 2.65 | I 2.48 | Y 2.27 | W 2.88 | L 3.3 | P 2.29 | G 3.13 | N 2.58 | E 2.77 | K 1.81 | H 3.94
Q7: D 2.45 | A 3.54 | P 2.45 | Y 2.81 | N 2.84 | S 2.99 | M 3.99 | H 3.22 | T 3.45 | C 2.21 | R 2.33 | K 2.59 | L 3.66 | E 3.06 | I 2.06 | V 2.68 | W 2.56 | G 1.33
M10: I 2.35 | R 3.32 | W 3.71 | G 2.09 | D 1.71 | L 2.62 | C 3.52 | S 1.96 | Y 2.33 | E 1.87 | K 1.69 | A 2.73 | F 1.99 | H 2.76 | N 2.14 | T 2.87 | P 2.64 | Q 2.65
P12: A 2.4 | I 3.14 | G 2.02 | K 2.72 | F 1.44 | D 3.28 | C 3.89
L11: T 2.73 | S 2.19 | E 1.52 | A 1.62 | W 2.6 | H 3.18 | G 1.55 | Q 2.42 | I 3.11 | R 1.94 | P 3.08 | F 2.5 | M 2.38 | D 1.23 | K 3.55 | Y 3.22 | N 1.71 | C 2.65 | V 2.06
